Test [1] has as its target T1, recombinant gp120 of HIV-1 strain IIIb (HIV-1 strain IIIb, UniProt P04578 33-511).
T1 construct: domain: gp120; also called IIIb-derived gp120; gp 120 (IIIB strain)
The experiment in a line: SPR BIAcore, gp120 on chip. On the technique in general: SPR reads the build-up and loss of mass on a sensor chip optically.

Test [2] concerns the target T1, recombinant gp120 of HIV-1 strain IIIb. The experiment in a line: cell-based or functional assay.
Test [3] deals with gp120 glycoprotein of HIV-1 strain MN (HIV-1 strain MN, UniProt P05877 32-513, limits assumed). The experiment in a line: cell-based or functional assay.
For test [4], the target named is T1, recombinant gp120 of HIV-1 strain IIIb. The experiment in a line: SPR BIAcore, gp120 on chip. This is another data set of the same source.
Text: In the assay, the gp120 glycoprotein, isolated from both MN (AgMed, Cambridge, Mass.) and IIIb (American Bio-Technologies) strains of HIV-1 were coated onto gold chips. […] As the mass of the gold chips increases due to the binding of the Fabs to the ligand, the refractive index of the chips increases indicating a coordinate increase in the increase of the mass. Measurements of the "on" rate are made in addition to the "off" rates, the latter of which occurs as the Fabs begin to dissociate from the ligand and the mass coordinately decreases, thereby allowing a measurement of the change of the refractive index. Briefly, the sensor chip was activated for immobilization with N-hydroxysuccinimide an N-ethyl-N'-(3-diethyl aminopropyl) carbodiimide. The proteins, MN-derived or IIIb-derived gp120, were coupled to the surface by injection of 50 ul of a 50 ug/ml sample. Excess activated esters were quenched with 15 ul ethanolamine, 1 M pH 8.5. Typically, 4000 resonance units were immobilized. Binding of Fab fragments to immobilized gp120 was studied by injection of Fab in a range of concentrations (0.5 to 10 ug/ml) at a flow rate of 5 ul/minute. The association was monitored as the increase in resonance units per unit time. Dissociation measurements were acquired following the end of the association phase but with a flow rate of 50 ul/minute. […]
For test [5] the target is unchanged. The experiment in a line: calculated as ln2/Koff from SPR.
Experimental: (§1) The soluble composite Fabs were then analyzed for binding affinity to gp120 strain IIIB.
In addition, the half-life of the binding of the gp120-reactive Fabs to gp120 can be obtained by dividing the natural log ($\ln_2$) with the $Koff$ rate constant, thereby obtaining a further parameter of the nature of the interaction.
For test [6] the target is unchanged. The experiment in a line: SPR BIAcore, gp120 on chip (summary table).
For test [7] the target is unchanged. The experiment in a line: SPR BIAcore, gp120 on chip. The source holds these as a separate data set.
Text: (§2) As the mass of the gold chips increases due to the binding of the Fabs to the ligand, the refractive index of the chips increases indicating a coordinate increase in the increase of the mass. Measurements of the "on" rate are made in addition to the "off" rates, the latter of which occurs as the Fabs begin to dissociate from the ligand and the mass coordinately decreases, thereby allowing a measurement of the change of the refractive index. Briefly, the sensor chip was activated for immobilization with N-hydroxysuccinimide an N-ethyl-N'-(3-diethyl aminopropyl) carbodiimide. The proteins, MN-derived or IIIb-derived gp120, were coupled to the surface by injection of 50 ul of a 50 ug/ml sample. Excess activated esters were quenched with 15 ul ethanolamine, 1 M pH 8.5. Typically, 4000 resonance units were immobilized. Binding of Fab fragments to immobilized gp120 was studied by injection of Fab in a range of concentrations (0.5 to 10 ug/ml) at a flow rate of 5 ul/minute. The association was monitored as the increase in resonance units per unit time. Dissociation measurements were acquired following the end of the association phase but with a flow rate of 50 ul/minute. The binding surface was regenerated with HCl, 1M NaCl, pH 3 and remained active for 20–40 measurements. […] Equilibrium association and dissociation constants were deduced from the rate constants.
as §1
Test [8] has the same target. The experiment in a line: SPR BIAcore, gp120 on chip. This is another data set of the same source.
Test [9] has the same target. The experiment in a line: SPR BIAcore, gp120 on chip. This is another data set of the same source.
Text: as §2
Test [10] shares this target. The experiment in a line: SPR BIAcore, gp120 on chip. The source holds these as a separate data set.
Experimental: Briefly, the sensor chip was activated for immobilization with N-hydroxysuccinimide an N-ethyl-N'-(3-diethyl aminopropyl) carbodiimide. The proteins, MN-derived or IIIb-derived gp120, were coupled to the surface by injection of 50 ul of a 50 ug/ml sample. Excess activated esters were quenched with 15 ul ethanolamine, 1 M pH 8.5. Typically, 4000 resonance units were immobilized. Binding of Fab fragments to immobilized gp120 was studied by injection of Fab in a range of concentrations (0.5 to 10 ug/ml) at a flow rate of 5 ul/minute. The association was monitored as the increase in resonance units per unit time. Dissociation measurements were acquired following the end of the association phase but with a flow rate of 50 ul/minute. The binding surface was regenerated with HCl, 1M NaCl, pH 3 and remained active for 20–40 measurements. […] Equilibrium association and dissociation constants were deduced from the rate constants.

The values that follow come from patent US6395275 (Scripps Research, dated 2002).

Like-named read-outs stand apart in the source and are kept apart here.

B1: Fab 3b3 (Fab, V domains shown)
VH: LEQSGAEVKKPGASVKVSCQASGYRFSNFTVHWVRQAPGQRFEWMGWINPYNGNKEFSAKFQDRVTFTADTSANTAYMELRSLRSADTAVYYCARVGEWGWDDSPQDNYYMDVWGKGTTVIVSS
VL: ELTQSPGTLSLSPGERATFSCRSSHSIRSRRVAWYQHKPGQAPRLVIHGVSNRASGISDRFSGSGSGTDFTLTITRVEPEDFALYYCQVYGASSYTFGQGTKLERKR
In general, Kd refers to a measure of binding affinity in units of concentration. B1: in test [1], the Ka amounted to 1.3e+09 M⁻¹. In addition, in test [2], the “IC50 (M), syncytium neutralization assay, HIV-1 IIIb” value worked out at 9.4e-10 M and the “Neutralization titer (ng/ml), syncytium assay, HIV-1 IIIb” value was 47 ng/mL. Also, in test [3], the “IC50 (M^-1), syncytium neutralization assay, HIV-1 MN on CEM-SS cells” value was determined as 9.02e+09 M⁻¹ and the “Neutralization Titer (ng/ml), syncytium assay, HIV-1 MN” value turned out to be 5.5 ng/mL. Also, the Kd in test [4] is 0.77 nM.

B2: composite Fab H31/L42-1 (Fab, V domains shown)
VH: LEQSGAEVKKPGASVKVSCQASGYRFSHFTVHWVRQAPGQRFEWHGWINPYNGNKEFSAKFQDRVTFTADTSANTAYMELRSLRSADTAVYYCARVGEWGWEMFRYDNYYMDVWGKGTTVIVSS
VL: ELTQSPGTLSLSPGERATFSCRSSHQLDGSRVAWYQHKPGQAPRLVIHGVSNRASGISDRFSGSGSGTDFTLTITRVEPEDFALYYCQQYGWPFYTFGQGTKLERKR
notes: also called Fab of plasmid pPho-H31/L42-1 (ATCC 69691)
What is called koff is the first-order rate constant of dissociation. Usually kon stands for the second-order rate constant of association. Take B2: in [5], the half-life of binding is 44.5 days. Also, in test [6], the Kd stood at 0.00259 nM. In test [7], the “Fold Increase of Mutant Kd Compared to MT4 Kd” value (from here on “Fold Increase”) stood at 2430 fold, the Ka is 3.85e+11 M⁻¹ and the Kd was found to be 0.00259 nM. Further, in test [8], the koff was 1.75e-07 s⁻¹ and the kon is 67300 M⁻¹ s⁻¹.

B3: Fab H4L3-4 (Fab, V domains shown)
VH: LEQSGAEVKKPGASVKVSCQASGYRFSNFTVHWVRQAPGQRFEWMGWINPYNGNKEFSAKFQDRVTFTADTSANTAYMELRSLRSADTAVYYCARVGEWGWDDSPQDNYYMDVWGKGTTVIVSS
VL: ELTQSPGTLSLSPGERATFSCRSSHSIRSRRVAWYQHKPGQAPRLVIHGVSNRASGISDRFSGSGSGTDFTLTITRVEPEDFALYYCQKYGGGTYTFGQGTKLERKR
As for B3, the Kd in test [6] amounted to 0.243 nM. Further, in [9], the “Fold Increase” value was found to be 25.7 fold and the Kd came to 0.243 nM.

B4: Fab H4H1-5 (Fab, V domains shown)
VH: LEQSGAEVKKPGASVKVSCQASGYRFSHFTIMWVRQAPGQRFEWMGWINPYNGNKEFSAKFQDRVTFTADTSANTAYMELRSLRSADTAVYYCARVGPYSWDDSPQDNYYMDVWGKGTTVIVSS
VL: ELTQSPGTLSLSPGERATFSCRSSHSIRSRRVAWYQHKPGQAPRLVIHGVSNRASGISDRFSGSGSGTDFTLTITRVEPEDFALYYCQVYGASSYTFGQGTKLERKR
On to B4, for which, in test [10], the “Fold Increase” value was 2.57 fold and the dissociation constant (Kd) was 2.45 nM.

B5: Fab H4H1-3 (Fab, V domains shown)
VH: LEQSGAEVKKPGASVKVSCQASGYRFSHFTLHWVRQAPGQRFEWMGWINPYNGNKEFSAKFQDRVTFTADTSANTAYMELRSLRSADTAVYYCARVGPYSWDDSPQDNYYMDVWGKGTTVIVSS
VL: ELTQSPGTLSLSPGERATFSCRSSHSIRSRRVAWYQHKPGQAPRLVIHGVSNRASGISDRFSGSGSGTDFTLTITRVEPEDFALYYCQVYGASSYTFGQGTKLERKR
B5: in test [10], the “Fold Increase” value was 3.15 fold and the Kd came to 2 nM.

B6: Fab 3b1 (Fab, V domains shown)
VH: LEQSGAEVKKPGASVKVSCQASGYRFSNFTLMWVRQAPGQRFEWMGWINPYNGNKEFSAKFQDRVTFTADTSANTAYMELRSLRSADTAVYYCARVGQWNWDDSPQDNYYMDVWGKGTTVIVSS
VL: ELTQSPGTLSLSPGERATFSCRSSHSIRSRRVAWYQHKPGQAPRLVIHGVSNRASGISDRFSGSGSGTDFTLTITRVEPEDFALYYCQVYGASSYTFGQGTKLERKR
As to B6, in test [2], the “IC50 (M), syncytium neutralization assay, HIV-1 IIIb” value came out at 4.4e-10 M and the “Neutralization titer (ng/ml), syncytium assay, HIV-1 IIIb” value amounted to 22 ng/mL. Moreover, in test [3], the “IC50 (M^-1), syncytium neutralization assay, HIV-1 MN on CEM-SS cells” value amounted to 5.42e+09 M⁻¹ and the “Neutralization Titer (ng/ml), syncytium assay, HIV-1 MN” value stood at 9.2 ng/mL.

B7: Fab H4H1-1 (Fab, V domains shown)
VH: LEQSGAEVKKPGASVKVSCQASGYRFSHFTVHWVRQAPGQRFEWMGWINPYNGNKEFSAKFQDRVTFTADTSANTAYMELRSLRSADTAVYYCARVGPYSWDDSPQDNYYMDVWGKGTTVIVSS
VL: ELTQSPGTLSLSPGERATFSCRSSHSIRSRRVAWYQHKPGQAPRLVIHGVSNRASGISDRFSGSGSGTDFTLTITRVEPEDFALYYCQVYGASSYTFGQGTKLERKR
B7: in test [10], the “Fold Increase” value came to 3.7 fold and the Kd came to 1.7 nM.
